Data on two substances can be found in patent publication US10646600B2, “HER2 polypeptides useful for imaging and monitoring tumors and cancers” (GE HEALTHCARE LIMITED, priority 2013, dated 2020).

One assay deals with T1, human HER2 (Homo sapiens, UniProt P04626).
T1 construct: Human, rhesus and rat HER2-ECD-Fc (SINO Biological, Beijing, China, Cat. Nr: 10004-H02H, 90020-K02H, and 80079-R02H); Fc (C); purchased SINO Biological 10004-H02H
Kind of assay: Surface Plasmon Resonance, human HER2-ECD-Fc. In kind it is binding. The procedure:
To characterize the affinity of [^19F]GE-226[SEQ ID NO 1] to HER2 protein, Surface Plasmon Resonance studies were conducted. Human, rhesus and rat HER2-ECD-Fc (SINO Biological, Beijing, China, Cat. Nr: 10004-H02H, 90020-K02H, and 80079-R02H), as well as human HER2-ECD-Fc-6×His (R&D Systems, Minneapolis, Minn., Cat. Nr: 1129-ER) and p95HER2 ECD-Fc-6×His (Syngene, Cambridge, United Kingdom) were diluted with 50 mM sodium acetate pH 4.5 (Biacore (GE Healthcare, Buckinghamshire, UK) coupling buffer) to a final concentration of 10 μg/mL. Antigen coupling to Biacore sensor chip CMS (Cat. Nr: BR-1005-30) was done according to amine coupling protocol from the instrument manual (Syngene). HBS-EP buffer (10 mM HEPES pH 7.4, 150 mM NaCl, 3 mM EDTA and 0.005% surfactant P20; GE Healthcare, Little Chalfont, United Kingdom, Cat. Nr: BR-1006-69) was used as running buffer and as solvent for the substances. The affinity studies were performed using a Biacore T100 (GE Healthcare). [^19F]GE-226 was diluted in HBS-EP buffer to 50 nM, 25 nM, 12.5 nM, 6.25 nM, 3.125 nM, 1.56 nM, 0.78 nM, 0.39 nM, 0.195 nM, 0.097 nM, 0.049 nM and 0 nM. The flow cells of the first chip comprised of blank, human HER2-ECD-Fc-6×His, p95HER2-ECD-Fc-6×His batch I and p95HER2-ECD-Fc-6×His batch II. The flow cells on the second chip contained blank, human HER2-ECD-Fc, rhesus HER2-ECD-Fc and rat HER2 ECD-Fc. The immobilization of the proteins was validated with protein-A (Sigma-Aldrich, St. Louis, Mo., Cat. Nr: P6031) and anti-human IgG antibody (Perkin Elmer, Waltham, Mass., Cat. Nr: NEF803001EA). [^19F]GE-226[SEQ ID NO 1] was pumped in duplicate over cells in randomized order for 60 sec at 50 μL/min flow rate followed by 120 sec of HBS-EP to monitor dissociation. This was followed by regeneration of the chip with 50 mM sodium hydroxide for 30 sec at 30 μL/min flow rate followed by 60 sec run of HBS-EP to stabilize the surface. Kinetic calculations were performed using Langmuir 1:1 binding model and simultaneous calculation of association and dissociation phase.

A further assay relates to SKOV-3 cells. Kind of assay: In vitro uptake assay in SKOV-3 cells (blocking, siRNA, drug treatment, specific activity). The format is cell-based, human. As for the experimental part:
For siRNA-mediated HER2 knockdown, SKOV-3 cells were transfected with 25 nM scramble control (SCR; Dharmacon, Lafayette, Colo., ON-TARGETplus Non-targeting Pool, Cat. Nr: D-001810-10-05) or HER2-targeting siRNA (Invitrogen ERBB2 Silencer® Select Validated siRNA; Cat. Nr: 4457298) by reverse wet transfection with Lipofectamine RNAiMAX (Invitrogen) according to manufacturer's instructions. 3×10^5 cells were seeded in 12-well plates 48 h prior to uptake experiment. Target knockdown was verified by western blotting on cells that were transfected in parallel.
For all uptake studies in response to drug treatment, 2.5×10^5 SKOV-3 cells were seeded in complete medium 48 h prior to uptake experiments.
For baseline uptake in HER2 positive or negative lineages, 3×10^5 cells were seeded in complete media in 12-well plates (Corning, Tewksbury Mass.) and allowed to recover overnight. Cells were washed twice with serum-free medium and pulsed with 370 KBq in 500 μL serum-free medium for one h. For blocking studies, cells were co-incubated with tracer and 0.5 mg/mL cold unlabeled [^19F]GE-226[SEQ ID NO 1].
Cells were washed with PBS, trypsinized, neutralized with complete medium and centrifuged. The pellet was washed three times with PBS and lysed in 120 μL RIPA buffer (Sigma-Aldrich). The radioactivity of 100 μL lysate was counted on a Packard Cobra II gamma counter (Perkin Elmer). Radioactivity was normalized to applied radioactivity and protein content, which was determined for each sample by BCA assay (Pierce, Rockford, Ill.).

Like-named read-outs stand apart in the source and are kept apart here.

Regarding “[^18F]GE-226: HER2-binding 18F-radiolabelled Affibody molecule ZHER2:2891”, in the assay with human HER2 (human HER2, text, read-out: KD), the Kd (in general, the free concentration of one partner at which half of the binding sites on the other are occupied at equilibrium, for simple one-to-one binding) was found to be 0.076 nM. Also, the entries for the “tracer uptake in comparison to freshly prepared tracer” value with SKOV-3 cells (incubation initiated 70 minutes later (specific activity)) and in the assay on SKOV-3 cells (incubation initiated 140 minutes later (specific activity)) were 39.5±8.5% and 24.9±3.8%, respectively.

Turning to “[^19F]GE-226: cold unlabeled non-radioactive 19F analogue of the tracer, used for SPR and blocking”, the Off-rate koff with human HER2 (Human HER2) turned out to be 0.00131 s⁻¹. In addition, in the assay with human HER2 (Human HER2), the Rmax turned out to be 133.5. This substance also had an On-rate kon with human HER2 (Human HER2, Langmuir 1:1 binding model) of 1.73e+07 M⁻¹ s⁻¹. Besides, the “Chi-Square χ^2” value in the assay with human HER2 (Human HER2, fit statistic) stood at 0.607. This substance registered a U-value with human HER2 (Human HER2, fit statistic) of 3. The equilibrium dissociation constant (Kd) with human HER2 (Human HER2, read-out: Affinity KD) amounted to 0.0758 nM; with human HER2 (human HER2, text, read-out: KD), 0.076 nM. Further, the “binding to human HER2 (words)” value with human HER2 (listed as GE-226) was “binds with high affinity”; with human HER2 (listed as [^19F]-GE-226) it was “high affinity binding”. For the same substance, in the assay on SKOV-3 cells (co-incubation with 0.5 mg/mL cold [19F]GE-226, 60 minutes), the “reduction of [18F]GE-226 uptake by blocking” value amounted to 96.8±2.6%. For the same substance, in the assay on SKOV-3 cells (co-incubation with large excess of 19F analogue), the “[18F]GE-226 uptake compared to control cells (100±12%)” value worked out at 3.1±2.6%.
